Data published in US20170056486A1 (IMMATICS BIOTECHNOLOGIES, published 2017).

B1: KLYGIEIEV (peptide)
peptide: KLYGIEIEV
B2: SLYHRVLLY (peptide)
peptide: SLYHRVLLY
B3: ALSDETKNNWEV (peptide)
peptide: ALSDETKNNWEV
B4: SLVPLQILL (peptide)
peptide: SLVPLQILL
B5: AIFDFCPSV (peptide)
peptide: AIFDFCPSV
B6: MLSDLTLQL (peptide)
peptide: MLSDLTLQL
B7: SSLEPQIQPV (peptide)
peptide: SSLEPQIQPV
B8: GAVAEEVLSSI (peptide)
peptide: GAVAEEVLSSI
B9: TLSSERDFAL (peptide)
peptide: TLSSERDFAL
B10: AQTVVVIKA (peptide)
peptide: AQTVVVIKA
B11: VLFLGKLLV (peptide)
peptide: VLFLGKLLV
B12: TLDHKPVTV (peptide)
peptide: TLDHKPVTV
B13: GLSSSSYEL (peptide)
peptide: GLSSSSYEL
B14: FLIDTSASM (peptide)
peptide: FLIDTSASM
B15: SVAKTILKR (peptide)
peptide: SVAKTILKR
B16: VLISSTVRL (peptide)
peptide: VLISSTVRL
B17: LLDHLSFINKI (peptide)
peptide: LLDHLSFINKI
B18: FAWEPSFRDQV (peptide)
peptide: FAWEPSFRDQV
B19: KILDLTRVL (peptide)
peptide: KILDLTRVL
B20: GLMDGSPHFL (peptide)
peptide: GLMDGSPHFL
B21: IASAIVNEL (peptide)
peptide: IASAIVNEL
B22: RLLPKVQEV (peptide)
peptide: RLLPKVQEV
notes: also called ZNF-003
B23: HLYNNEEQV (peptide)
peptide: HLYNNEEQV
B24: LLRGPPVARA (peptide)
peptide: LLRGPPVARA
B25: YVLPKLYVKL (peptide)
peptide: YVLPKLYVKL
B26: IQADDFRTL (peptide)
peptide: IQADDFRTL
B27: GVIETVTSL (peptide)
peptide: GVIETVTSL
B28: HLPDFVKQL (peptide)
peptide: HLPDFVKQL
B29: LLYDGKLSSA (peptide)
peptide: LLYDGKLSSA
B30: ALDDSLTSL (peptide)
peptide: ALDDSLTSL
B31: EYALLYHTL (peptide)
peptide: EYALLYHTL
B32: VLGPGPPPL (peptide)
peptide: VLGPGPPPL
B33: VLLAAGPSAA (peptide)
peptide: VLLAAGPSAA
B34: ILDETLENV (peptide)
peptide: ILDETLENV
B35: VLLRVLIL (peptide)
peptide: VLLRVLIL
B36: GLIYEETRGV (peptide)
peptide: GLIYEETRGV
B37: GLLWQIIKV (peptide)
peptide: GLLWQIIKV
B38: SVDSAPAAV (peptide)
peptide: SVDSAPAAV
B39: DDX5-001 (YLLPAIVHI from DDX5) (peptide)
peptide: YLLPAIVHI
notes: negative control peptide of the T-cell stimulations; also called 419

Molecular target: T1, HLA-A*02 (human)
T1 construct: Peptide-receptive MHC monomer made by UV cleavage of a UV-sensitive ligand and captured on streptavidin plates; also called HLA-A*02 MHC class I molecule; peptide-receptive MHC
Experiment: UV-exchange ELISA (anti-b2m); yield >=75%
Excerpt: (§1) Candidate peptides for T cell based therapies according to the present invention were further tested for their MHC binding capacity (affinity). The individual peptide-MHC complexes were produced by UV-ligand exchange, where a UV-sensitive peptide is cleaved upon UV-irradiation, and exchanged with the peptide of interest as analyzed. Only peptide candidates that can effectively bind and stabilize the peptide-receptive MHC molecules prevent dissociation of the MHC complexes. To determine the yield of the exchange reaction, an ELISA was performed based on the detection of the light chain (β2m) of stabilized MHC complexes. The assay was performed as generally described in Rodenko et al. (Rodenko et al., 2006).
(§2) 96 well MAXISorp plates (NUNC) were coated over night with 2 ug/ml streptavidin in PBS at room temperature, washed 4× and blocked for 1 h at 37° C. in 2% BSA containing blocking buffer. […] Peptide-MHC monomers of the UV-exchange reaction were diluted 100 fold in blocking buffer. Samples were incubated for 1 h at 37° C., washed four times, incubated with 2 ug/ml HRP conjugated anti-β2m for 1 h at 37° C., washed again and detected with TMB solution that is stopped with […]. Absorption was measured at 450 nm.

Row | Binder | peptide exchange yield [%]
1 | B1 | ≥ 75
2 | B2 | ≥ 75
3 | B3 | ≥ 75
4 | B4 | ≥ 75
5 | B5 | ≥ 75
6 | B6 | ≥ 75

Molecular target: T1, HLA-A*02
Experiment: UV-exchange ELISA (anti-b2m); yield <20%
Excerpt: as §1, §2

Row | Binder | peptide exchange yield [%]
7 | B7 | < 20
8 | B8 | < 20
9 | B9 | < 20
10 | B10 | < 20

Molecular target: T1, HLA-A*02
Experiment: UV-exchange ELISA (anti-b2m); yield 20%-49%
Excerpt: as §1, §2

Row | Binder | peptide exchange yield [%]
11 | B11 | 20 to 49
12 | B12 | 20 to 49
13 | B13 | 20 to 49
14 | B14 | 20 to 49
15 | B15 | 20 to 49
16 | B16 | 20 to 49
17 | B17 | 20 to 49
18 | B18 | 20 to 49
19 | B19 | 20 to 49
20 | B20 | 20 to 49
21 | B21 | 20 to 49
22 | B22 | 20 to 49
23 | B23 | 20 to 49
24 | B24 | 20 to 49
25 | B25 | 20 to 49
26 | B26 | 20 to 49
27 | B27 | 20 to 49
28 | B28 | 20 to 49
29 | B29 | 20 to 49
30 | B30 | 20 to 49
31 | B31 | 20 to 49
32 | B32 | 20 to 49
33 | B33 | 20 to 49
34 | B34 | 20 to 49
35 | B35 | 20 to 49
36 | B36 | 20 to 49
37 | B37 | 20 to 49
38 | B38 | 20 to 49

Molecular target: T2, HLA-A*02:01 (human)
T2 construct: MHC class I molecule without the peptide
Experiment: biotinylated peptide-MHC complex used as negative control in T-cell priming
Procedure: 800.000 beads/200 μl were coated in 96-well plates in the presence of 4×12.5 ng different biotin-pMHC, washed and 600 ng biotin anti-CD28 were added subsequently in a volume of 200 μl. Stimulations were initiated in 96-well plates by co-incubating 1×10⁶ CD8+ T cells with 2×10⁵ washed coated beads in 200 μl TCM supplemented with 5 ng/ml IL-12 (PromoCell) for 3 days at 37° C. Half of the medium was then exchanged by fresh TCM supplemented with 80 U/ml IL-2 and incubating was continued for 4 days at 37° C. This stimulation cycle was performed for a total of three times. For the pMHC multimer readout using 8 different pMHC molecules per condition, a two-dimensional combinatorial coding approach was used as previously described (Andersen et al., 2012) with minor modifications encompassing coupling to 5 different fluorochromes. […] For analysis, a BD LSRII SORP cytometer equipped with appropriate lasers and filters was used. Peptide specific cells were calculated as percentage of total CD8+ cells. Evaluation of multimeric analysis was done using the FlowJo software (Tree Star, Oregon, USA). In vitro priming of specific multimer+ CD8+ lymphocytes was detected by comparing to negative control stimulations.

Row | Binder | binding result
39 | B39 | binds
